# Data from patent US8221773B2, “Hydrogels and uses thereof” (University of Delaware, priority 2004, dated 2012).
# Where no end group is shown, it is not given here. [ ]: non-standard residue; d: D form.
# Experiments:
# [1] = cited from earlier work
# [2] = Temperature dependent CD: temperature at which folding and self-assembly is triggered (Tgel); format: physicochemical; settings: for temperature at which folding and consequent self-assembly is triggered (Tgel): 150 μM peptide, 125 mM Borate, 10 mM NaCl, pH 9, CD ellipticity at 218 nm
# Excerpt: At low temperature MAX1 is unfolded (and unassembled). At high temperature MAX1 folds into beta-sheet (and consequently self-assembles into a hydrogel). […] The relative hydrophobicity is MAX1>MAX2>MAX3 due to the isostructural but less hydrophobic substitutions of threonine for valine at the underlined positions. The most hydrophobic folds at the lowest temperature while the least hydrophobic folds at the highest temperature. This is a direct manifestations of the molecular parameter manipulations described in FIG. 2. Also shown are the calculated free energy of transfer of each corresponding unfolded peptide having an overall +8 charge state from octanol into water at 25° C. MAX1, the most hydrophobic has the highest free energy of transfer equal to 7.60 kcal/mol. MAX2 has a calculated transfer free energy of 6.88 kcal/mol, while the least hydrophobic MAX3 has the lowest energy of transfer of 6.45 kcal/mol.
# This allows the characteristics of the hydrogels of the invention to be varied by adjusting these parameters. […] It is well known that water is better able to solvate hydrophobic groups at low temperatures. This phenomenon has been used to describe the cold denaturation of proteins where some proteins unfold at low temperatures, exposing their hydrophobic interiors to aqueous solvent. A 150 μM aqueous solution of MAX1 unfolds when cooled below room temperature. The CD spectrum at 5° C. is consistent with random coil conformation, FIG. 9A. However, warming the solution to 40° C. results in a spectra consistent with β-sheet structure. […] In fact, previous studies involving the pH induced folding and self-assembly of MAX1 were performed at 20° C. At this temperature, folding and self-assembly are slow enough to be conveniently monitored. At higher temperatures, folding and self: assembly leading to hydrogelation is fast (instantaneous to seconds depending on concentration). If the formation of hydrophobic interactions affects the folding and self-assembly process, then altering the hydrophobic content of MAX1 should affect the temperature at which folding is triggered. […] MAX2 is identical to MAX1 except that one valine residue has been replaced with the isostructural, but less hydrophobic residue, threonine. In MAX3, two valines are replaced with threonine residues. The resulting peptides vary in their hydrophobicity as evident by comparing calculated free energies of transfer from octanol into water, FIG. 9. […] Thus, the formation of hydrophobic contacts influences folding and self-assembly. […] Thus, the characteristics of the hydrogels of the invention can be varied by adjusting the amino acid residues of the peptides used to form the hydrogels to increase or decrease the hydrophobicity of the amino acid residues used.
# There are reports of large polymers that are thermally responsive. The present invention provides the first system that employs temperature triggered folding to induce self-assembly. […] Heating the solution to 80° C. results in a spectra consistent with β-sheet structure. […] The temperatures used in both CD and rheology bracket the temperature (Tgel=60° C., FIG. 9) at which folding and consequent self-assembly is triggered. […] For example, free flowing peptide solutions could be prepared at room temperature and administered in vivo where the temperature of the body could induce gelation. […]
# [3] = Hydrogelation by folding and self-assembly; format: physicochemical; settings: for reversibility of thermally induced hydrogelation: pH 9, heating/cooling cycles
# Procedure: The ability of MAX1 to undergo hydrogelation is dependent upon its unimolecular folded state. Under basic aqueous solution conditions (pH 9.0, 125 mM Borate, 10 mM NaCl), where some of the lysine side chains of MAX1 are neutral, this peptide intramolecularly folds into an amphiphilic β-hairpin (folding can also be triggered at pH 7 under physiological conditions). One face of the hairpin is lined with hydrophobic valine residues while the other face is lined with hydrophilic lysine residues, FIGS. 2 and 3A. After intramolecular folding, subsequent self-assembly of hairpins is facilitated (a) laterally via H-bond formation and attractive hydrophobic interactions between distinct hairpins as well as (b) facially by hydrophobic association of the valine-rich faces of the folded peptide resulting in hydrogelation, FIG. 3B. Since the charged state of the lysine residues are controlled by pH, the unimolecular folding is reversible. Lowering the pH below the intrinsic pKa of the lysine side chains results in intra-strand charge repulsion from neighboring lysines and subsequent unfolding of individual hairpins, ultimately dissolving the self-assembled hydrogel structure. This reversible behavior is unique when compared to β-sheet-rich hydrogels prepared from classical fibril-based designs. In these systems, the self-assembly process is irreversible.
# There are reports of large polymers that are thermally responsive. The present invention provides the first system that employs temperature triggered folding to induce self-assembly. […] Heating the solution to 80° C. results in a spectra consistent with β-sheet structure. […] The temperatures used in both CD and rheology bracket the temperature (Tgel=60° C., FIG. 9) at which folding and consequent self-assembly is triggered. […] For example, free flowing peptide solutions could be prepared at room temperature and administered in vivo where the temperature of the body could induce gelation. Some Poly-N-isopropylacrylamide polymers have been engineered have been engineered to undergo such transitions ultimately affording extracellular-like scaffolds for tissue regeneration. The above studies support the idea that the formation of hydrophobic interactions are important. MAX1-3 all contain valines and threonines at hydrogen bonded positions. At these positions, their side chains prefer to adopt a trans rotamer. As a result, hydrophobic residues that oppose each other across the hairpin point their side chains in opposite directions thus making the formation of intramolecular hydrophobic interactions across the strands difficult, FIG. 11A. However, these side chains are nicely positioned to interact laterally with the hydrophobic side chains of neighboring hairpins in the self-assembled state, FIG. 11B. Forming these lateral hydrophobic interactions should favor self-assembly. […] In MAX4, opposing valine side chains are expected to point towards each other, FIG. 11B. Thus, the valine side chains of MAX4 are less likely than those in MAX1 to form lateral intermolecular hydrophobic interactions. If the formation of lateral intermolecular hydrophobic interactions is of more importance for self-assembly than intramolecular hydrophobic contacts, then the rate of self-assembly should be faster for MAX1 than for MAX4. This difference in rate should be evident in the rate of storage moduli (rigidity) increase. […] (Tgel=20° C. for both peptides). […]
# [4] = CD spectroscopy of peptide folding (random coil vs β-sheet); format: physicochemical; settings: 150 μM solution, pH 9.0, 125 mM Borate, 10 mM NaCl
# Procedure: Time-dependent circular dichroism (CD) studies support a hydrogelation mechanism consistent with intramolecular hairpin formation followed by self-assembly. […] At temperatures >25° C. the folding and self-assembly of MAX1 occurs on the order of seconds. […] This behavior is consistent across all spectro- and microscopic methods used to interrogate MAX1. For example, at micromolar concentrations used for the CD studies shown in FIGS. 4A and 4B, self-assembly takes hours at 20° C. At millimolar concentrations, such as those used in the rheological studies described below, self-assembly leading to hydrogel takes minutes at 20° C.
# The reversibility of the folding and self-assembly process was investigated by measuring θ216 as a function of pH and time as shown in FIG. 4C. CD of a stirred solution of MAX1 at pH 5.5 indicates random coil conformation. Adjusting the pH to 9.0 by the addition of NaOH results in β-sheet formation as expected. However, subsequent adjustment of the pH to 6.0 results in complete loss of sheet signal and full recovery of random coil signal. […] Again, this reversible behavior is not observed in hydrogels formed from amyloid/prion-like fibrils.
# In some embodiments of the invention, various functionalities (e.g., cell adhesion epitopes, receptor agonists, receptor antagonists, ligands, small molecules, etc) may be incorporated into the hairpin hydrogel scaffold. One way to accomplish this would be to functionalize one or more amino acid side chains of the peptide. […] In some embodiments, the moieties to be incorporated at a particular side chain may be much larger (e.g. RGD-based motifs) and may contain charged residues. MAX5 (VKVKVKVKV^DPPTKVKEKVKV-NH2) was prepared to investigate the possibility of incorporating a charged residue on the hydrophobic face of MAX1. The sequence contains a glutamic acid residue at position 16 which is negatively charged at basic pH where MAX1 normally folds and assembles. […] However, alterations to the hydrophilic face of MAX1 are well tolerated. Sequences in which one or two lysine residues are replaced with other residues such as cysteine, serine, and glutamic acid are capable of folding and self-assembly into rigid hydrogels (data not shown).
# The peptides described above contain identical turn sequences, namely (-V^DPPT-). This sequence has a strong propensity to form a type II′ turn and therefore helps to drive intramolecular folding. Since intramolecular folding must occur prior to self-assembly, alterations to this turn sequence that inhibit turn structure formation can be used to modulate intramolecular folding and self-assembly leading to hydrogelation. MAX9 was prepared to probe the importance of the turn region (VKVKVKVKV^LPPTKVKVKVKV-NH2). […]
molecule,measurement,setting,value
NC(=O)CN1CCN(CC(N)=O)CCN(CC(N)=O)CCN(CC(N)=O)CC1 [DOTAM],Kd,[1]; read-out: Kd for calcium,0.029 µM
-DRKADGYIDFEE-,Kd for Ca(II),[1]; linear peptide,low mM
KVKVKVKV K^DPPS VKVKVKVK-NH2 (chain 1 KVKVKVKVK[dP]PS; not fully specified) [MAX4],temperature at which folding and consequent self-assembly is triggered (Tgel),[2],20 °C
VKVKVKTK V^DPPT KVKTKVKV-NH2 (not fully specified (C-terminus)) [MAX3],temperature at which folding and consequent self-assembly is triggered (Tgel),[2],60 °C
same,reversibility of thermally induced hydrogelation,[3],thermally reversible
VKVKVKVK VPPT KVKVKVKV-NH2 (VKVKVKVKVPPTKVKVKVKV-NH2) [MAX9],conformation by CD under folding conditions,[4],only random coil
same,hydrogelation under folding conditions,[3]; 2 wt % solutions,failed to undergo hydrogelation
VKVKVKVK V^DPPT KVKCKVKV-NH2 (not fully specified (C-terminus)) [MAX6],ability to fold and self-assemble,[3],folds and self-assembles
VKVKVKVK V^DPPT KVKEKVKV-NH2 [MAX5],conformation by CD under folding conditions,[4],random coil
VKVKVKVK V^DPPT KVKTKVKV-NH2 (not fully specified (C-terminus)) [MAX2],temperature above which peptide folds/self-assembles,[2]; pH 9 (10 mM NaCl),greater than 45 °C
same,temperature below which peptide is unfolded,[2]; pH 9 (10 mM NaCl),below 40 °C
same,reversibility of thermally induced hydrogelation,[3],not reversible
